# In IntAct's records for PubMed 11739402:
# Assays:
# [1] = molecular target: gors2_rat Gorasp2 (UniProt Q9R064)
# [2] = molecular target: gors1_rat Gorasp1 (UniProt O35254)
# gors1_rat Gorasp1, sequence (O35254 whole entry): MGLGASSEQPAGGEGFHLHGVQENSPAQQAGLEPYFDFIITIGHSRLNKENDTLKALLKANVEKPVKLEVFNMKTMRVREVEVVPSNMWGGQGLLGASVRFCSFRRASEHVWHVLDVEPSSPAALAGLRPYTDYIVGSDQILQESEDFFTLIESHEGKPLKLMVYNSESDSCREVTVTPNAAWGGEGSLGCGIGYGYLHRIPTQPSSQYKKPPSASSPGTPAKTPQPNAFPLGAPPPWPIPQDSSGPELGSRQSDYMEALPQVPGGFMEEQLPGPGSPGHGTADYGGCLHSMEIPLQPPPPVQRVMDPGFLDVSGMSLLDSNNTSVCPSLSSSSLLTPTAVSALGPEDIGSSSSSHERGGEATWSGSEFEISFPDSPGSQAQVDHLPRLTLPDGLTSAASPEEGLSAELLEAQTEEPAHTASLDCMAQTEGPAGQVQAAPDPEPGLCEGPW
# Transmembrane emp24 domain-containing protein 2 (Rattus norvegicus (Rat)), Q63524 V200A;V201A, sequence (Q63524 whole entry V200A/V201A, the tested form may be a part): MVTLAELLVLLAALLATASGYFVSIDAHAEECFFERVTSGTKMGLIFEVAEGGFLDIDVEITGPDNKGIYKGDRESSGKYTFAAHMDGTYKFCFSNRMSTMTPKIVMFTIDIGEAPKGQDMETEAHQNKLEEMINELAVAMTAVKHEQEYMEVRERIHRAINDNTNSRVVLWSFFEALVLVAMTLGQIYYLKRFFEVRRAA
substance,measurement,setting,value
"Transmembrane emp24 domain-containing protein 2 (Rattus norvegicus (Rat)), Q63524 V200A;V201A",effect of a mutation on the interaction,[1],decreasing interaction
same,effect of a mutation on the interaction,[2],decreasing interaction
